Laboratory results reported in patent WO2019096294A1 (dated 2019).

What was measured:
[1] = target: T1, His-tagged human thrombin (human, UniProt P00734 328-622); assay: Biacore SPR; ratio of the affinities for thrombin and prothrombin
[2] = target: T2, His-tagged human prothrombin (human, UniProt P00734 44-622, limits assumed); assay: binding ELISA; His-tagged human prothrombin coated on plate
T2 construct: not shown: His tag

[3] = target: T1, His-tagged human thrombin; assay: binding ELISA; biotinylated His-tagged human thrombin on streptavidin plate

- selective activity (affinity for thrombin relative to affinity for prothrombin) [1]: 11.2
- EC50 [2]: 0.151 µg/mL
- EC50 [3]: 0.375 µg/mL
B1: h1601-008 (antibody, V domains shown)
VH: EVQLVESGGGLVQPGGSLRLSCAASGFTFSDYYMAWVRQAPGKGLEWVSNINSDGSSTYYLDSLKSRFTISRDNSKNTLYLQMNSLKAEDTAVYYCARDHYHGNSYVFDYWGQGTTVTVSS
VL: DIQMTQSPSSLSASVGDRVTITCKASEDIYNRLAWYQQKPGKAPRLIISGATSLETGVPSRFSGSGSGKDYTLTISSLQPEDFATYYCQQYWSTPWTFGGGTKVEIK
notes: Humanized parent antibody from WO2017133673A1; Only VH and VL are tied to it; it was detected with an anti-human secondary antibody and captured with an anti-human capture kit
